These results are taken from US20190307797A1 (MAX DELBR CK CENTRUM F R MOLEKULARE MEDIZIN IN DER …, published 2019).

The assay concerns the target T1, purified BCMA (CD269) extracellular domain (human, UniProt Q02223 4-54).
T1 construct: also called BCMA extracellular domain; extracellular domain of CD269
T1 sequence: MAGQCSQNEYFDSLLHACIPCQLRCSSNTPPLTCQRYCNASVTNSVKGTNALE
Put plainly: co-crystallisation, crystal structure of the complex.

B1: Fab fragment prepared from the mouse or chimeric antibody from which the CAR was derived (chimeric antibody J22.9-xi) (Fab, V domains shown)
VH: QVQLQQSGGGLVQPGGSLKLSCAASGIDFSRYWMSWVRRAPGKGLEWIGEINPDSSTINYAPSLKDKFIISRDNAKNTLYLQMSKVRSEDTALYYCASLYYDYGDAMDYWGQGTSVTVSS
VL: DIVMTQSQRFMTTSVGDRVSVTCKASQSVDSNVAWYQQKPRQSPKALIFSASLRFSGVPARFTGSGSGTDFTLTISNLQSEDLAEYFCQQYNNYPLTFGAGTKLELKR
notes: also called J22.9-xi Fab; Fab fragments prepared from mouse or chimeric antibodies
For the molecule B1, the binding result is listed as “binds”.
